Assay [1] has as its target biotinylated CV peptide (Innovagen), CV60-75, on streptavidin. Briefly: flow cytometry of transduced Tregs stained with biotinylated-CV-peptide/streptavidin-FITC tetramer (y axis, 'CAR+ cells') and EGFRt antibody (x axis). A general note: In flow cytometry, cells or beads pass a laser one at a time.
Assay [2] has the same target. The assay is described as follows: flow cytometry of transduced Tregs stained with biotinylated-CV-peptide/streptavidin-FITC tetramer (y axis, 'CAR+ cells') and EGFRt antibody (x axis); number printed under the right half of the panel, taken as the lower right quadrant.
Assay [3] has as its target T1, Human CV peptide 60-75 (biotinylated citrullinated vimentin peptide) (human, also: biotinylated, position not given here).
T1 construct: Captured through biotin on streptavidin (ELISA plate or SPR chip); also called human citrullinated vimentin
T1 peptide: VYAT[Cit]SSAV[Cit]L[Cit]SSVP
The assay is described as follows: SPR (Biacore T100), biotinylated CV peptide on streptavidin-coated sensor chip, scFv injected from 400nM down to 12.5nM; fit table under the sensorgrams, column ka (1/Ms). Here is the method: (§1) Assessment of the binding specificity and affinity of BVCA1 antibodies and scFv to CV peptide: The binding specificity of BVCA1 IgG and scFv were assessed by ELISA. 96-well ELISA plates were coated 0/N at 4° C. with 50 μl Streptavidin at 10m/ml. Wells were washed three times and blocked with 2000 of 1×PBS 1% BSA for 1 h at RT and washed again. 1000 of biotinylated peptides at 10 ug/ml diluted in PBS 1% BSA were added and incubated for 1 h at RT. Wells were then washed three times. 1000 of BVCA1 IgG or scFv or isotype control were added at various concentrations (serial dilution). […] Reaction was stopped with 50 11.1 of NaOH 3M after 15 to 30 min and absorbance was read in a microplate reader at 405 nm. Kinetics and affinities of BVCA1 Ig and scFv to CV peptide were analyzed by surface plasmon resonance using Biacore T100 (GE healthcare). […]
(In general: Surface plasmon resonance follows binding to a sensor surface in real time, without labels.)

The target of assay [4] is T2, Murine CV peptide 60-75 (biotinylated citrullinated vimentin peptide) (murine, also: biotinylated, position not given here).
T2 construct: Captured through biotin on streptavidin in ELISA; also called murine citrullinated vimentin
T2 peptide: AYVT[Cit]SSAV[Cit]L[Cit]SSVP
Briefly: ELISA, biotinylated peptide on streptavidin-coated plate, scFv detected with anti-c-Myc 9E10 and anti-mouse IgG-AP, absorbance 405 nm. Here is the method: as §1
(ELISA stands for enzyme-linked immunosorbent assay.)

Assay [5] deals with T1, Human CV peptide 60-75 (biotinylated …). The description is as above. Here is the method: as §1
Assay [6] shares this target. Briefly: SPR (Biacore T100), biotinylated CV peptide on streptavidin-coated sensor chip, scFv injected from 400nM down to 12.5nM; fit table under the sensorgrams, column KD (M). Here is the method: as §1
Assay [7] has the same target. The assay is described as follows: SPR (Biacore T100), biotinylated CV peptide immobilised on streptavidin-coated chip, scFv injected. On the procedure: as §1
Assay [8] shares this target. The assay is described as follows: SPR (Biacore T100), biotinylated CV peptide on streptavidin-coated sensor chip, scFv injected from 400nM down to 12.5nM; fit table under the sensorgrams, column kd (1/s). Here is the method: as §1

Square brackets hold non-standard residues; d marks the D form. Ends that are not written are not given here. Cit = NC(=O)NCCC[C@H](N)C(=O)O

Broadly, the kon is the second-order rate constant of association. Low readings indicate slower complex formation, high ones faster complex formation. Usually EC50 (read off the curve) stands for the concentration at which the effect is half-maximal. A low value points to greater potency. As usually defined, the Kd is a measure of binding affinity in units of concentration. Low values mean tighter binding, high ones weaker binding. In general, koff refers to a measure of how fast the partners let go of each other. A high value points to a short-lived complex.

In turn, CD19.41BBz-CAR on human Tregs registered a % of cells CVpep-SA-FITC+ EGFRt+ (upper right quadrant) in assay [1] of 0.5%. In assay [2], this molecule gave a % of cells CVpep-SA-FITC- EGFRt+ (lower right quadrant; the number stands below the panel) of 63.4%.

Turning to CD19.28z-CAR on human Tregs, in assay [1], the % of cells CVpep-SA-FITC+ EGFRt+ (upper right quadrant) worked out at 1.5% and the % of cells CVpep-SA-FITC+ EGFRt- (upper left quadrant) is 0.1%. Further, the % of cells CVpep-SA-FITC- EGFRt+ (lower right quadrant; the number stands below the panel) in assay [2] came to 72.9%.

B1: CV.28z-CAR (Anti-CV CAR-CD28z) on human Tregs (protein)
chain: EVKLIESGGGLVEPGRSLRLACTTSGFTFADYGLSWFRQGPGKGLEWVGFTGPKHLGETTECAPSVEDRCTISRDDSKSTVYLQMHRLQHEDTAVYFCVGPWFGDLLMWGQGTLVTVSSASSGGSTSGSGKPGSGEGSSGSARAIQMTQSPSSLSASVGDRVSITCRATQDISTSLGWYHQRPGKAPRLLIYGASKVQTGVPSRFSGNGSGTEFTLTISSLQPEDIGTYYCLQDDGFPFTVGQGTKLDIKRAAAIEVMYPPPYLDNEKSNGTIIHVKGKHLCPSPLFPGPSKPFWVLVVVGGVLACYSLLVTVAFIIFWVRSKRSRLLHSDYMNMTPRRPGPTRKHYQPYAPPRDFAAYRSRVKFSRSADAPAYQQGQNQLYNELNLGRREEYDVLDKRRGRDPEMGGKPRRKNPQEGLYNELQKDKMAEAYSEIGMKGERRRGKGHDGLYQGLSTATKDTYDALHMQALPPR
In assay [1], B1 came in with a % of cells CVpep-SA-FITC+ EGFRt+ (upper right quadrant) of 47.5%, a % of cells CVpep-SA-FITC+ EGFRt- (upper left quadrant) of 0.6% and a % of cells CVpep-SA-FITC- EGFRt+ (lower right quadrant) of 20.7%.

B2: CV.41BBz-CAR (Anti-CV CAR-41BBz) on human Tregs (protein)
chain: EVKLIESGGGLVEPGRSLRLACTTSGFTFADYGLSWFRQGPGKGLEWVGFTGPKHLGETTECAPSVEDRCTISRDDSKSTVYLQMHRLQHEDTAVYFCVGPWFGDLLMWGQGTLVTVSSASSGGSTSGSGKPGSGEGSSGSARAIQMTQSPSSLSASVGDRVSITCRATQDISTSLGWYHQRPGKAPRLLIYGASKVQTGVPSRFSGNGSGTEFTLTISSLQPEDIGTYYCLQDDGFPFTVGQGTKLDIKRAAAIEVMYPPPYLDNEKSNGTIIHVKGKHLCPSPLFPGPSKPFWVLVVVGGVLACYSLLVTVAFIIFWVKRGRKKLLYIFKQPFMRPVQTTQEEDGCSCRFPEEEEGGCELRVKFSRSADAPAYQQGQNQLYNELNLGRREEYDVLDKRRGRDPEMGGKPRRKNPQEGLYNELQKDKMAEAYSEIGMKGERRRGKGHDGLYQGLSTATKDTYDALHMQALPPR
In assay [1], B2 came in with a % of cells CVpep-SA-FITC+ EGFRt+ (upper right quadrant) of 55.4%, a % of cells CVpep-SA-FITC+ EGFRt- (upper left quadrant) of 0.6% and a % of cells CVpep-SA-FITC- EGFRt+ (lower right quadrant) of 18.9%.

B3: BVCA1 scFv (soluble CV-specific scFv, VH-linker-VL) (scFv)
scFv: EVKLIESGGGLVEPGRSLRLACTTSGFTFADYGLSWFRQGPGKGLEWVGFTGPKHLGETTECAPSVEDRCTISRDDSKSTVYLQMHRLQHEDTAVYFCVGPWFGDLLMWGQGTLVTVSSASSGGSTSGSGKPGSGEGSSGSARAIQMTQSPSSLSASVGDRVSITCRATQDISTSLGWYHQRPGKAPRLLIYGASKVQTGVPSRFSGNGSGTEFTLTISSLQPEDIGTYYCLQDDGFPFTVGQGTKLDIKRAAA
notes: Produced in E. coli periplasm; also called anti-CV scFv; single-chain variable fragment (scFv) synthesized from BVCA1 antibody; not shown: tags of the pSYN-expressed protein (detected with anti-c-Myc 9E10, purified on Ni-NTA)
In turn, B3 displayed a kon in assay [3] of 19000 M⁻¹ s⁻¹. The “EC50 (read off the curve)” value in assay [4] and in assay [5] was approximately 2 ng/mL in each case. For the same molecule, the Kd in assay [6] and in assay [7] was 198 nM in each case. In assay [8], this molecule yielded a dissociation rate constant (koff) of 0.00377 s⁻¹.

The values above are taken from patent US20200399355A1 (University of California, published 2020).
